Earlier results as cited in publication PMC8291337.

Biological target: Spike protein (SARS-CoV-2) (UniProt P0DTC2)

**Q.** For CD147 (from UniProt P35613), which Kd is on record?
**A.** 185 nM
